Positions count from the first letter of the chain named.
T1: CD19抗原 (B lymphocyte antigen CD19) (human, UniProt P15391 20-291, limits assumed, biotin label in Examples 2-4 (site not stated))
T1 construct: also called CD19-his; CD19-his-biotin; not shown: his tag
T1 sequence (looked up): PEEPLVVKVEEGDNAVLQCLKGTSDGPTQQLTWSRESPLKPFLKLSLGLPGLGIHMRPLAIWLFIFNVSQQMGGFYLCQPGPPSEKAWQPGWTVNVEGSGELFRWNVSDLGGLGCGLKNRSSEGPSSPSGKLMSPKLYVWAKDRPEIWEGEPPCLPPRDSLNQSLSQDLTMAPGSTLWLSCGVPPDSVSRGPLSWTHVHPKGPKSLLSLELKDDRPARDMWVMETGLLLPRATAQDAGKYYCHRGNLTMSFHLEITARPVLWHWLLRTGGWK

B1: Combo-5 (scFv in periplasmic extract) (scFv)
scFv: EVKLQESGPGLVAPSQSLSVTCTVSGWSLEDYGVSWIRQSPRKGLEWLGGIIGSQTTYYLAGLKSRLTIIKDNSKSQVFLKMNSLQTDDTAIYYCAKHRYYGGSFDMDYWGQGTSVTVSSGGGGSGGGGSGGGGSDIQMTQTTSSLSASLGDRVTISCRASQDISKYLNWYQQKPDGTVKLLIYHTSRLHSGVPSRFSGSGSGTDYSLTISNLEQEDIATYFCQQGNTLPYTFGGGTKLEIT
notes: Soluble scFv in E. coli periplasmic extract (PPE), not purified
B2: Combo-6 (scFv in periplasmic extract) (scFv)
scFv: B1 scFv with G50V, I52W, Q55E, L60N, A61S, G62A
notes: as for B1
B3: Combo-13 (scFv in periplasmic extract) (scFv)
scFv: EVKLQESGPGLVAPSQSLSVTCTVSGVSLPDYGVSWIRQSPRKGLEWLGVIWGSETTYYNSALKSRLTIIKDNSKSQVFLKMNSLQTDDTAIYYCAKHYYYGGSYAMDYWGQGTSVTVSSGGGGSGGGGSGGGGSDIQMTQTTSSLSASLGDRVTISCRASMDIKKYLNWYQQKPDGTVKLLIYQTSRLAWGVPSRFSGSGSGTDYSLTISNLEQEDIATYFCQQGKKAPLTFGGGTKLEIT
notes: as for B1
B4: Combo-9 (scFv in periplasmic extract) (scFv)
scFv: B3 scFv with S40P, M162Q, D163P, K165R, K166R
notes: as for B1
B5: Combo-7 (scFv in periplasmic extract) (scFv)
scFv: B1 scFv with R99W, D106A
notes: as for B1
B6: Combo-10 (scFv in periplasmic extract) (scFv)
scFv: B3 scFv with S40P, M162Q, D163P, K165R, K166R, Q185H, A190H, W191S
notes: as for B1
B7: Combo-8 (scFv in periplasmic extract) (scFv)
scFv: B1 scFv with G50V, I52W, Q55E, L60N, A61S, G62A, R99W, D106A
notes: as for B1
B8: Combo-14 (scFv in periplasmic extract) (scFv)
scFv: B3 scFv with Q185H, A190H, W191S
notes: as for B1

Target: T1, CD19抗原 (B lymphocyte antigen CD19)
Assay: ELISA of periplasmic extract dilutions on a CD19-coated plate, OD450

| Binder | binding result |
| --- | --- |
| B1 | binds |
| B2 | binds |
| B3 | binds |
| B4 | binds |
| B5 | binds |
| B6 | binds |
| B7 | binds |
| B8 | binds |
